Biological target: HCV包膜糖蛋白
Test: cell-based or functional assay

B1: 全人源抗HCV中和抗体TRN1002 (antibody)
heavy: QVQLVQSGAEVKKPGSSVRVSCKASGGTLGSFAGSWVRQAPGQGLEWIGGIIPMFRRTNYAQKFQGRVTITADESTGTTYLELSSLRSDDTAIYFCAREIPGYCTGGRCFGYFDYWGQGTLVTVSS
light: EIVLTQSPGTLSLSPGESATLSCRASQHVNSNFLAWYQQKRGQTPRLLIYAASSRATGIPDRFSGSGSGTDFTLTISRLEPEDFAVYYCQQYGTSLTFGQGTKVEIK
Question: How did the Luciferase活性 (荧光值), HCVpp感染Huh7细胞 turn out when B1 was run?
Answer: The Luciferase活性 (荧光值), HCVpp感染Huh7细胞 was 100 %.

Reference: patent publication CN106749645A
